The test system of series [1] is HMGB2 protein. Put plainly: Inhibition of HMGB2 protein by miRNAs in human and mouse cells. In kind it is cell-based. How it is done: (§1) Western Blotting: Total protein lysates were prepared from livers and cells in lysis buffer containing 50 mM Tris, pH 8.0, 1% Nonidet™ P-40, 150 mM NaCl, 0.5% sodium deoxycholate, 0.1% SDS with protease inhibitors (Thermo Fisher Scientific) and subjected to immunoblotting. Nuclear and cytoplasmic subcellular fractions were prepared using NE-PER nuclear and cytoplasmic extraction reagents (Pierce) according to the manufacturer's instructions. The blot was incubated with a primary antibody, followed by a secondary antibody conjugated to horseradish peroxidase. ECL kit (Pierce) was used to detect the reactivity. The following antibodies were obtained from Cell Signaling Technology: HMGB2, HMGB1, AKT, p-AKT, mTOR, p-mTOR, ERK1/2, pERK1/2, Raptor, Rictor, p53, p21, p-Bad, Smad4, p-Smad2/3, Lamin A/C, a-SMA, MMP2, MMP9, TIMP1, RhoA, Rho-GTP, Cdc42, Rac1/2/3. Anti-HA antibody and anti-beta actin antibody were purchased from Sigma and Santa Cruz Biotechnology, respectively.
(§2) Cell culture, Cell transfection:HEK293T, Hela, Hep3B and MHCC97H cells were cultured and transfected using X-tremeGENE™ HP DNA transfection reagent (Roche) as described previously. CGR8 ES cells were cultured on 0.1% gelatin coated tissue-culture dish in knockout DMEM medium containing 15% ES qualified-Fetal Bovine Serum, 2 mM L-glutamin, 0.1 mM NEAA, 0.1 mM β-mercaptoethanol, 50 μg/ml penicillin-streptomycin and 10 ng/ml Leukemia inhibitory factor (LIF). TIC cells were cultured in DMEM-F12 medium containing Embryomax nucleotides, 2 mM L-glutamin, 0.1 mM NEAA, 20 ng/ml mouse EGF, 50 μg/ml penicillin-streptomycin and […].
We identified conserved binding sites for miR-539, miR-543, miR-181c, and miR-23α in human and mouse HMGB2 3′UTRs (not sho4wn). We tested the inhibition of HMGB2 protein by these miRNAs in both human and mouse cells. […]

Series [2] relates to CGR8 ES cells. Put plainly: CGR8 ES cell differentiation and EB formation. As to conditions: knockdown of HMGB2 (summary). In kind it is cell-based, mouse. How it is done: as §2
(§3) ES cells EB formation and TICs spheroid assay: CGR8 ES cells were trypsinized into single cells and cultured in ES medium devoid of LIF in hanging drops (900 cells per EB) for 2 d and transferred to ultralow attachment plate for a further 2 d suspension culture. Then, EBs were plated onto gelatin coated tissue-culture plate for further 7 d spontaneously differentiation.
FIGS. 10A-C show the establishment of CGR8 cell culture and differentiation. […] Undifferentiated feeder-free CGR8 ES cells were maintained on 0.1% gelatin coated 6-cm tissue-culture dish in ES medium containing 10 ng/ml Leukemia inhibitory factor (LIF). For EB formation, CGR8 ES cells were trypsinized into single cells and cultured in ES medium devoid of LIF in hanging drops (900 cells per EB) for 2 d and in suspension culture for a further 2 d. Then, EBs were transferred onto gelatin coated tissue-culture plate for further spontaneously differentiation. ES withdraw LIF 2d, CGR8 ES cells were cultured in ES medium devoid of LIF for 2 d.
FIG. 14A is Left, Western blot of HMGB2 and SOX2 protein in HEK293T cells transfected with 0.5 μg […] expression plasmid and 0, 1 or 2 μg Flag-HMGB2 expression plasmid. Right, Western blot of HMGB2 and OCT4 protein in HEK293T cells transfected with 0.5 μg HA-OCT4 expression plasmid and 0, 1 or 2 μg Flag-HMGB2 expression plasmid. […] CGR8 cells were lysed, co-immunoprecipitated with OCT4 antibody, followed by Western blot with HMGB2 or OCT4 antibodies. FIG. 14 C is a luciferase reporter assay. HepG2 cells were infected with AAV8-GFP or AAV8-HMGB2 24 hrs before being transfected with 6*OS luciferase reporter and OCT4, SOX2 expression plasmids alone or in combination.

Series [3] concerns CGR8 ES cells. Put plainly: qPCR of ES markers and three-germ layer genes in CGR8 ES cells and EBs. The conditions noted are these: miR-127 lentivirus versus GFP; CGR8 ES cells and 4d EBs. In kind it is cell-based, mouse. How it is done:
RNA Isolation and Analysis: RNA was isolated using TRIzol® (Thermo Fisher) according to the manufacturer's instructions. For quantitative real time RT-PCR (q-PCR), RNA was reverse transcribed using iScript™ cDNA Synthesis Kit (Bio-Rad). The resultant cDNA was amplified and quantified using SsoAdvance™ Universal SYBR® Green Supermix (Bio-Rad) in CFX384 Touch™ Real-Time PCR Detection System (BioRad). qPCR was performed in triplicate for each sample and repeated at three times. Ct values were used to calculate the relative expression level normalized to the levels of Hprt1 or beta-actin expression.
as §3
(§4) Right, western blot of HMGB2, RhoA, CDC42, Rac1/2/3 in TIC cells which were infected with miR-127 or GFP lentivirus.
(In qPCR the cycle at which signal appears reflects the starting amount.)

Series [4] relates to HMGB2 protein. As to the kind of experiment: Western blot of HMGB2 protein in HCC cells transfected with miR-127. In kind it is cell-based, human. The conditions noted are these: HCC cells transfected with miR-127 (FIGS. 12C-F). How it is done: as §1
Cell culture, Cell transfection:HEK293T, Hela, Hep3B and MHCC97H cells were cultured and transfected using X-tremeGENE™ HP DNA transfection reagent (Roche) as described previously. […]
A general note: In western blotting, separated proteins are transferred to a membrane and probed.

For the next series, the system named is MMP and Rho signaling. As to the kind of experiment: Western blot of MMP and Rho signaling in TIC cells. The class given is cell-based. The conditions noted are these: TIC cells, miR-127 lentivirus versus GFP (FIG. 15B). How it is done:
as §1
Cell Lines The LX-2 human stellate cell line was maintained in Dulbecco's Modified Eagle's Medium (DMEM) supplemented with 2% fetal bovine serum (FBS), 100 IU/ml penicillin, and 100 μg/ml streptomycin. Human hepatocellular carcinoma (HCC) MHCC97H cells were maintained in DMEM supplemented with 10% FBS, 100 IU/ml penicillin, and 100 μg/ml streptomycin, 1 mM HEPES, 1 mM sodium pyruvate, 2 mM L-glutamine. Tumor-initiating (TIC) cells were obtained from Dr. Hidekazu Tsukamoto at University of Southern California and were maintained in 1:1 DMEM:F12 supplement with 100 U/ml penicillin and 100 μg/ml streptomycin, 2 mM glutamine, 20 ng/ml mouse EGF, 10 nM dexamethasone, 1× embryomax nucleotides. All the cells were maintained at 37° C. humidified atmosphere with 5% CO2. TIC cells were infected with Hmgb2 shRNA lentivirus for 48 hr, and treated with 500 ng/ml puromycin for 2 weeks. The stable cells were used for migration and invasion assay, as well as western blot.

The next series deals with TIC cells. Put plainly: TIC cell spheroid assay. In kind it is cell-based. As to conditions: TIC cells infected with miR-127 lentivirus (FIG. 15C). How it is done: TIC cells were trypsinized into single cells and 1000 cells were suspended in serum free TIC medium with 1% methylcellulose supplemented with B27, 20 ng/ml EGF and 20 ng/ml FGF in each well of 96-well ultralow attachment plate.

Series [5] relates to HMGB2 protein. Put plainly: Western blot of HMGB2 in TIC cells infected with miR-127 lentivirus. In kind it is cell-based. The conditions noted are these: miR-127 lentivirus versus GFP (FIG. 15B). How it is done: as §1, §4
A further series concerns HMGB2 3′UTR. Put plainly: HMGB2 3′UTR luciferase reporter assay in HEK293T cells. In kind it is cell-based, human. The conditions noted are these: 0, 75 or 150 ng miR-127 (FIG. 12A-12B). How it is done: Luciferase reporter assay: 48 h after transfection with luciferase reporter plasmid and Renilla plasmid, cells were harvested and analyzed with the Dual-Luciferase reporter assay system (Promega) as described. All assays were done in triplicates, and all values were normalized for transfection efficiency against Renilla luciferase activities.
FIG. 12A is a sequence alignment of miR-127 and the 3′-UTR of HMGB2 in human, mouse and rat. The seed match region is indicated by underline. mut, mutant FIG. 12B is a Luciferase reporter assay. Left, HEK293T cells were transfected with HMGB2 3′UTR luciferase reporter with 0, 75 or 150 ng miR-127; Middle, HEK293T cells were transfected with wild-type or mutant HMGB2 3′UTR with or without 150 ng miR-127. Right, HEK293T cells were transfected with HMGB2 3′UTR with or without miR-127 antagomir. Luciferase activity was normalized to Renilla activity. In FIG. 12C, Western blotting was performed to determine endogenous HMGB2 protein in Hela cells that were transfected with pTarget, pTarget-miR-433, or pTarget-miR-127. β-Actin served as an internal control. In FIG. 12D, Left, western blot was performed to determine HMGB2 and CREB protein level in MHCC97H cells transfected with miR-127 for 24 hrs. Right, qPCR analysis of miR-127 level in MHCC97 cells transfected with miR-127 for 0, 24, 48 hrs. […]
(Reporter assays use an easily measured gene product as a stand-in for the process of interest.)

The mark [6] stands for this setting: miRNA overexpression, Huh7, HEK293T, Hepa1, or TIC (FIG. 11).

B1: miR-539: microRNA, accession number NR_030256.1, SEQ ID NO: 5 (nucleic acid, listed as Homo sapiens)
chain: ATACTTGAGGAGAAATTATCCTTGGTGTGTTCGCTTTATTTATGATGAATCATACAAGGACAATTTCTTTTTGAGTAT
modifications: expressed or natural sequence
B1: the values for the HMGB2 protein result with HMGB2 protein [1] (setting [6]) and in the series on HMGB2 protein [1] (only in Huh7) were “decreased” and “inhibited”, respectively.

B2: miR-127: microRNA, accession number NR_029696.1, SEQ ID NO: 4; targets the HMGB2 3′UTR (nucleic acid, listed as Homo sapiens)
chain: TGTGATCACTGTCTCCAGCCTGCTGAAGCTCAGAGGGCTCTGATTCAGAAAGATCATCGGATCCGTCTGAGCTTGGCTGGTCGGAAGTCTCATCATC
modifications: expressed or natural sequence
Consider B2, for which the CGR8 differentiation result in the series on CGR8 ES cells [2] is “promotes CGR8 differentiation”. Besides, in the series with CGR8 ES cells [3], the “differentiation markers (Bmp5, Foxa2)” value is recorded as “increases” and the “stem cell marker (Oct4, Nanog, Sox2) expression” value is reported as “decreases”. For the same molecule, the HMGB2 protein entry in the series on HMGB2 protein [4] is reported as “decreases HMGB2 protein”. Also, in the series with MMP and Rho signaling, the Rhos/CDC42/Rac signaling entry is “downregulates”. In addition, the spheroid formation entry with TIC cells is “downregulates”. In addition, in the series with HMGB2 protein [5], the HMGB2 protein entry was “downregulates”. In the series with HMGB2 3′UTR, the “targeting of HMGB2 3′UTR (luciferase reporter)” value is reported as “targets the HMGB2 3′UTR”.

B3: miR-543: microRNA, accession number NR_030619.1, SEQ ID NO: 6 (nucleic acid, listed as Homo sapiens)
chain: TACTTAATGAGAAGTTGCCCGTGTTTTTTTCGCTTTATTTGTGACGAAACATTCGCGGTGCACTTCTTTTTCAGTATC
modifications: expressed or natural sequence
For the molecule B3, in the series with HMGB2 protein [1] (setting [6]), the HMGB2 protein entry is listed as “decreased”.

For the origin of these results see patent publication US20180320177A1, “COMPOSITIONS AND METHODS FOR THE TREATMENT OF LIVER FIBROSIS” (UNIVERSITY OF CONNECTICUT, priority 2015, published 2018).
